Assay results taken from PMC5891081.

T1: RAD52 wild type (Homo sapiens, UniProt P43351 1-418)
T1 sequence: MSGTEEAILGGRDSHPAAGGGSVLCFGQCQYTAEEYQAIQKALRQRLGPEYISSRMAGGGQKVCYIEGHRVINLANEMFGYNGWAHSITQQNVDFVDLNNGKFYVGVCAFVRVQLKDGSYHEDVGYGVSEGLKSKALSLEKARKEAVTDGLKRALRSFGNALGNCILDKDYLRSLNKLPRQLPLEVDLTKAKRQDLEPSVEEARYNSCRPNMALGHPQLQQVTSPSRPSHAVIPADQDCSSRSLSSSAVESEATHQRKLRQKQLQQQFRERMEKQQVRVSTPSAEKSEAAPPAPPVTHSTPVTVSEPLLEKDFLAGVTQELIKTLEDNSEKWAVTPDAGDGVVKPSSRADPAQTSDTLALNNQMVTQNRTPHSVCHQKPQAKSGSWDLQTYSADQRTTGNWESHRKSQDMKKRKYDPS


Key:
[1] = biological target: GAL4-DBD-fused RAD52 (10xQ) (human) (UniProt P43351); test: two-hybrid; yeast; GAL4 DBD-fused RAD52 with NLS-GAL4 AD fusions; lacZ reporter, liquid beta-galactosidase assay, activity relative to RAD52 (Wt)
RAD52 wild type = biological target: T1, RAD52 wild type; test: EMSA; 10 uM nucleotides DNA; 16 uL reactions, Cy5-50-mer 10 uM in nucleotides; 5X buffer contains 0.1 M HEPES-NaOH pH 7.5 (20 mM final if 1X); remaining components, salt and temperature cut off in the material; settings: protein: recombinant; tags: C-terminal His6 construct (pET21a) or pET15b construct; label: 5'-Cy5; single strand, 50 nt

| fold change of beta-galactosidase activity against RAD52 (Wt) [1] [fold] | Molecule | binding result (RAD52 wild type) |
| --- | --- | --- |
| 1.7 | GAL4-DBD-fused RAD52 (10xQ) (from UniProt P43351 1-418) (natural protein) |  |
|  | TCGCCATCAACTAACGATTCTGTCAAAAACTGACGCGTTGGATGAGGAGA (ssDNA) [FX174-50-1 (oligo 1)] | binds |
